Test results: doi:10.1101/2025.06.14.659664 (bioRxiv, 2025)
Substitutions are numbered along the chain they refer to. Names may count otherwise. Blank lines part the entries; values can stand above or below the binder they belong to.

Target: UbcH8 (UniProt O14933 1-153)
Assay: NMR titration

Sequence of UbcH8 (O14933 whole entry): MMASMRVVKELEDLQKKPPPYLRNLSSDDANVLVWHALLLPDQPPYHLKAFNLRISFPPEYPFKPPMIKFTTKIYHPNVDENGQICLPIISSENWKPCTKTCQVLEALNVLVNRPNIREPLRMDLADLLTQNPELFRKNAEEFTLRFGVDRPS

- binding result: binds
B1: GBI-Uba7-UFD fusion protein (human Uba7 ubiquitin-fold domain, residues 903-1011), wild type (domain or fragment, UniProt P41226 903-1011, looked up)
chain: IQTFHHLKWTSWDRLKVPAGQPERTLESLLAHLQEQHGLRVRILLHGSALLYAAGWSPEKQAQHLPLRVTELVQQLTGQAPAPGQRVLVLELSCEGDDEDTAFPPLHYE

- binding result: binds
B2: GBI-Uba7-UFD A1004C mutant (domain or fragment, human, UniProt P41226 903-1011, looked up)
chain: B1 chain with A102C
